Target: Lhcb2 of Posidonia oceanica, threonine-phosphorylated (Posidonia oceanica (endogenous in leaves))

stoichiometry N (Lhcb1 per Lhcb2): 2
Substance: Lhcb1 of Posidonia oceanica (natural protein)

— publication doi:10.1101/2025.06.20.660723
